Experimental data from patent US20230132049A1 (Genmab, published 2023).

What was measured:
human CD30 [1] = biological target: T1, human CD30 (human, UniProt P28908 19-595); experiment: cell-based or functional assay
T1 sequence: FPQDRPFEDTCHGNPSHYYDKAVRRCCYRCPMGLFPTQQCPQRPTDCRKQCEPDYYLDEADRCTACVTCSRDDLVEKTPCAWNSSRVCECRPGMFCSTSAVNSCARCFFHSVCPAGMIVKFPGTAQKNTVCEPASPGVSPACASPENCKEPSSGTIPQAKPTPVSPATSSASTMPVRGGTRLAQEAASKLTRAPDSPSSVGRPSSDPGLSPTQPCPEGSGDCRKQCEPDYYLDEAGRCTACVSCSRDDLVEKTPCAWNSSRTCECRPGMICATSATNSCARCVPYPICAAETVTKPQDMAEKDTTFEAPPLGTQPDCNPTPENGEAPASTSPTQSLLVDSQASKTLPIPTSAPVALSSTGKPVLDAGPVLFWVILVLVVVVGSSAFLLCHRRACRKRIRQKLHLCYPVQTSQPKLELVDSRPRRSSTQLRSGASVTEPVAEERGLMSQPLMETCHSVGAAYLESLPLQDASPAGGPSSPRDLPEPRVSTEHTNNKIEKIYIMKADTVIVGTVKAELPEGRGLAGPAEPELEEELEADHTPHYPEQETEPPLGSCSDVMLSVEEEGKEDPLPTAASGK

human CD30 [2] = biological target: T1, human CD30; experiment: cell-based or functional assay; remark: listed apart in the source
human CD30 [3] = biological target: T1, human CD30; experiment: flow cytometry on HEK293 cells transfected with human CD30
complement protein C1q = biological target: T2, complement protein C1q (human, UniProt P02745 23-245; P02746 28-253; P02747 29-245); experiment: flow cytometry with FITC anti-C1q: C1q from 20% human serum on activated human CD8+ T cells incubated with the antibody
T2 construct: Native C1q in 20% human serum
T2 sequence (P02745 23-245 limits assumed, chain 1 of 3): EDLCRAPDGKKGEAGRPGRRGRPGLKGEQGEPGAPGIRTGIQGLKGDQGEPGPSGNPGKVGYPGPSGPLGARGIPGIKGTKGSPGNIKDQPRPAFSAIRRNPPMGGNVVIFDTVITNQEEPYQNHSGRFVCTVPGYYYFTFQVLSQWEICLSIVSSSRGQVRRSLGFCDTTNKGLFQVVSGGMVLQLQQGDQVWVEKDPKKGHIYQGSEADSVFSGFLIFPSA
T2 sequence (P02746 28-253 limits assumed, chain 2 of 3): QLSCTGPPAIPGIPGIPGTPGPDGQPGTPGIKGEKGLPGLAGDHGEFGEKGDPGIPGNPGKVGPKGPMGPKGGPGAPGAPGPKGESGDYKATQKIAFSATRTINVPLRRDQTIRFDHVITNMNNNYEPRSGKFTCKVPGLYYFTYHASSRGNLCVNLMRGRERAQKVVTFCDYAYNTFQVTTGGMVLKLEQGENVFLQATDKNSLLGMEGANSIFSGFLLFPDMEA
T2 sequence (P02747 29-245 limits assumed, chain 3 of 3): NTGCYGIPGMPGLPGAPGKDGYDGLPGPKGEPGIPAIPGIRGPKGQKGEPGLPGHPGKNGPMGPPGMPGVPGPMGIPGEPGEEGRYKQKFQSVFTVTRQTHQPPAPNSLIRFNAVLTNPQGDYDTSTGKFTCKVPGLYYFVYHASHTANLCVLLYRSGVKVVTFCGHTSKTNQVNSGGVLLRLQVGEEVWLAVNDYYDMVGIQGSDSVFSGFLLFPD
Protocol: Activated CD8⁺ T cells were seeded in a round-bottom 96-well plate (30,000 cells/well), pelleted, and resuspended in 30 μL assay medium (RPMI-1640 with 25 mM HEPES and L-glutamine, supplemented with 0.1% [w/v] bovine serum albumin fraction V (BSA; Roche, cat. no. 10735086001) and penicillin/streptomycin).
Human serum (20 μL/well; Sanquin, lot 20L15-02), as a source of C1q, was added to a final concentration of 20%. Cells were incubated on ice for 45 min, followed by two washes with cold GMB FACS buffer and incubation with 50 μL fluorescein isothiocyanate (FITC)-conjugated rabbit anti-human C1q (final concentration of 20 μg/mL (DAKO, cat no. F0254); diluted 1:75 in GMB FACS buffer) in the presence or absence of allophycocyanin-conjugated mouse-anti-CD8 (BD Biosciences, cat. no. 555369; diluted 1:50 in GMB FACS buffer) in the dark at 4° C. for 30 min. […] C1q binding to viable cells (as identified by DAPI exclusion) was analyzed by flow cytometry on an iQue3 Screener (Intellicyt Corporation). Data were analyzed using iQue software (Intellicyt Corporation, ForeCyt® Enterprise Client Edition 6.2 [R3], Version 6.2.652).

B1: bsG1-huCD3-FEAL×CD30-MDX060-FERR (bispecific antibody, human IgG1, kappa, lambda)
heavy 1: not shown
light 1: not shown
heavy 2: QVQLQQWGAGLLKPSETLSLTCAVYGGSFSAYYWSWIRQPPGKGLEWIGDINHGGGTNYNPSLKSRVTISVDTSKNQFSLKLNSVTAADTAVYYCASLTAYWGQGSLVTVSSASTKGPSVFPLAPSSKSTSGGTAALGCLVKDYFPEPVTVSWNSGALTSGVHTFPAVLQSSGLYSLSSVVTVPSSSLGTQTYICNVNHKPSNTKVDKRVEPKSCDKTHTCPPCPAPEFERGPSVFLFPPKPKDTLMISRTPEVTCVVVDVSHEDPEVKFNWYVDGVEVHNAKTKPREEQYNSTYRVVSVLTVLHQDWLNGKEYKCKVSNKALPAPIEKTISKAKGQPREPQVYTLPPSREEMTKNQVSLTCLVKGFYPSDIAVEWESNGQPENNYKTTPPVLDSDGSFFLYSRLTVDKSRWQQGNVFSCSVMHEALHNHYTQKSLSLSPG
light 2: DIQMTQSPTSLSASVGDRVTITCRASQGISSWLTWYQQKPEKAPKSLIYAASSLQSGVPSRFSGSGSGTDFTLTISSLQPEDFATYYCQQYDSYPITFGQGTRLEIKRTVAAPSVFIFPPSDEQLKSGTASVVCLLNNFYPREAKVQWKVDNALQSGNSQESVTEQDSKDSTYSLSSTLTLSKADYEKHKVYACEVTHQGLSSPVTKSFNRGEC
notes: one arm of each; also called bsG1-huCD3×CD30-MDX060
cytotoxicity IC50 (µg/mL) average, Karpas-299 cells (human CD30 [1]): 0.029 µg/mL
cytotoxicity maximum lysis (%) average, Karpas-299 cells (human CD30 [1]): 52.3%
Cytotoxicity, Average IC50 (µg/mL), KI-JK cells (human CD30 [2]): 0.0015 µg/mL
Cytotoxicity, Average IC50 (µg/mL), L-428 cells (human CD30 [2]): 0.002 µg/mL
EC50 (read off the curve) (human CD30 [3]): ~0.09 µg/mL
binding result (complement protein C1q): no binding (tested: 30 µg/mL)
